First the molecules themselves.
B1: Ab037 (antibody, V domains shown)
VH: EVQLLESGGGLVQPGGSLRLSCAASGFTFSSYEMNWVRQAPGKGLEWVSSISSSSRYADVANSVVGRFTISRDNSKNTLYLQMNSLRAEDTAVYYCARGEWLDHFDYWGQGTLVTVSS
VL: QSVLTQPPSASGTPGQRVTISCSGSSSNIGNSAVNWYQQLPGTAPKLLIYDNNKRPSGVPDRFSGSKSGTSASLAISGLRSEDEADYYCQVWDSGTAVFGGGTKLTVLG
B2: Ab080 (antibody, V domains shown)
VH: EVQLVESGGGVVQPGGSLRLSCAASGFTFDDYAMHWVRQAPGKGLEWVSLISWDGGSTYYADSVKGRFTISRDNSKNSLYLQMNSLRAEDTALYYCAKARGVVIIDYWGQGTLVTVSS
VL: EIVLTQSPGTLSLSPGERATLSCRASQSLSSSFLAWYQQKPGQAPRLLIYGAGSRATGVPDRFSGSGYGTDFSLTISRLELEDFAVYYCQQYDRSQITFGQGTRLEIK
B3: Ab001 (antibody, V domains shown)
VH: EVQLLESGGGLVQPGGSLRLSCAASGFTFSSYEMNWVRQAPGKGLEWVSSISSSSSYIYYADSVKGRFTISRDNSKNTLYLQMNSLRAEDTAVYYCARVRWYKDSDAFDIWGQGTLVTVSS
VL: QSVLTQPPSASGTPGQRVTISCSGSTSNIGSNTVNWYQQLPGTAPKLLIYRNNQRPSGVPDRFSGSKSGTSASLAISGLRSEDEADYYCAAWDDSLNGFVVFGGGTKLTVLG
B4: Ab062 (antibody, V domains shown)
VH: QVQLQQWGAGLLKPSETLSLTCAVYGGSFSGYYWSWIRQPPGKGLEWIGEINHSGSTNYNPSLKSRVTISVDTSKNQFSLKLSSVTAADTAVYYCARGPSGWYIREFDYWGQGTLVTVSS
VL: QSVLTQPPSVSGAPGQRVTISCTGSSSNIGAGYDVHWYQQLPGTAPKLLIYGNSNRPSGVPDRFSGSKSGTSASLAITGLQAEDEADYYCQSYDSSLSGSGVFGGGTKVTVL
B5: Ab079 (antibody, V domains shown)
VH: QMQLVQSGAEMKKPGASVKVSCKASGYSFSDYGITWVRQAPGQGPEWMGWISGYNGNTNYAQKFQDRVTMTTDTSTSTAYMELRSLKSDDTAVYFCARARGVWMFDNWGQGTLVTVSS
VL: AIRMTQSPSTLSASVGDRVTITCRASQSISTWLAWYQQKPGKAPKLLIYTTSTLESGVPSRFSGSRSGTEFTLTISSLQPDDFATYYCQQYNSYPLTFGGGTKVEIK
B6: Ab053 (antibody, V domains shown)
VH: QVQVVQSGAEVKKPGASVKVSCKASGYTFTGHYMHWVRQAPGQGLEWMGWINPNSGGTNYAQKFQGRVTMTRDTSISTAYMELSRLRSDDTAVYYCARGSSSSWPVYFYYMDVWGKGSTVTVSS
VL: QSALTQPRSVSESPGKTVTISCTGSGGSIGSNYVQWYQQRPGSAPTTVIFEDNRRPSGVPDRFSGSIHSSSNSASLTISGLKTEDEADYYCQSYVGTIVVFGGGTKVTVL
B7: Ab083 (antibody, V domains shown)
VH: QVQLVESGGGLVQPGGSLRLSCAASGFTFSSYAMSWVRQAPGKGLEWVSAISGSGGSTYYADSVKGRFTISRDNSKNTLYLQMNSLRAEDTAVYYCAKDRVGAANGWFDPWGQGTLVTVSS
VL: AIQLTQSPSSLSASVGDRVTISCRASQSITSYLNWYQQKPGKAPNLLIYAASSLQSGVPSRFSGSGSGTDFTLTIAGLQPEDFATYYCQQFDSYPFTFGGGTKLEIK

The target of this experiment is T1, INS/INSR complex (human, UniProt P06213 28-1382; P01308 25-110, limits assumed).
T1 construct: cells carrying INSR pre-exposed to human insulin (150 nM for CHO-K1 hINSR cells); also called R-L; INSR with insulin
In words: ratio of the value for R to the value for R-L, Table 2.
Regarding B1, the “KD ratios (R against R-L)” value turned out to be 1.4. Consider B2, for which the “KD ratios (R against R-L)” value came out at 17.6.

As to B3, the “KD ratios (R against R-L)” value was found to be 103. The result for B4 reads 1.1. With B5, the “KD ratios (R against R-L)” value was determined as 19.4. The result for B6 reads 1.5. The result for B7 reads 20.2.

The values above are taken from patent US20110274692A1 (published 2011).
